The data set in a line: Directed evolution of UGT76G1, Rebaudioside D to Rebaudioside M, round 1 (Example 26). Type of data set: biochemical. The conditions noted are these: 100 μL fresh lysate, 0.5 mM Rebaudioside D, 30° C., pH 7.2. As for the experimental part:
Lysis was performed by addition of Bugbuster® Master mix (Novagen®) to the thawed cells and the lysate was recovered by centrifugation. Activity tests were performed with 100 μL of fresh lysate that was added to a solution of Rebaudioside D (final concentration 0.5 mM), MgCl2 (final concentration 3 mM) and UDP-Glucose (final concentration 2.5 mM) in 50 mM phosphate buffer pH 7.2.
The reaction was allowed to run at 30° C. and samples were taken after 2, 4, 7 and 24 h. to determine conversion and initial rate by HPLC (CAD detection) using the analytical method that was described above for the transformation of Rebaudioside D to Rebaudioside M. The results are depicted in the following table.

B1: UGT76G1var35: UGT76G1 variant, mutations T284L_F314S_S357N (protein, UniProt Q6VAB4 1-458, looked up, variant T284L F314S S357N)
UDP-glycosyltransferase 76G1: MENKTETTVRRRRRIILFPVPFQGHINPILQLANVLYSKGFSITIFHTNFNKPKTSNYPHFTFRFILDNDPQDERISNLPTHGPLAGMRIPIINEHGADELRRELELLMLASEEDEEVSCLITDALWYFAQSVADSLNLRRLVLMTSSLFNFHAHVSLPQFDELGYLDPDDKTRLEEQASGFPMLKVKDIKSAYSNWQILKEILGKMIKQTKASSGVIWNSFKELEESELETVIREIPAPSFLIPLPKHLTASSSSLLDHDRTVFQWLDQQPPSSVLYVSFGSLSEVDEKDFLEIARGLVDSKQSFLWVVRPGSVKGSTWVEPLPDGFLGERGRIVKWVPQQEVLAHGAIGAFWTHNGWNSTLESVCEGVPMIFSDFGLDQPLNARYMSDVLKVGVYLENGWERGEIANAIRRVMVDEEGEYIRQNARVLKQKADVSLMKGGSSYESLESLVSYISSL
Turning to B1, the “conversion Reb D to Reb M after 24 h” value is on record as 0.5% and the initial rate was 1.8E+05 Reb M area/min.

B2: UGT76G1var44: UGT76G1 variant, mutations I335V_S375R_I407V (protein, UniProt Q6VAB4 1-458, looked up, variant I335V S375R I407V)
UDP-glycosyltransferase 76G1: MENKTETTVRRRRRIILFPVPFQGHINPILQLANVLYSKGFSITIFHTNFNKPKTSNYPHFTFRFILDNDPQDERISNLPTHGPLAGMRIPIINEHGADELRRELELLMLASEEDEEVSCLITDALWYFAQSVADSLNLRRLVLMTSSLFNFHAHVSLPQFDELGYLDPDDKTRLEEQASGFPMLKVKDIKSAYSNWQILKEILGKMIKQTKASSGVIWNSFKELEESELETVIREIPAPSFLIPLPKHLTASSSSLLDHDRTVFQWLDQQPPSSVLYVSFGSTSEVDEKDFLEIARGLVDSKQSFLWVVRPGFVKGSTWVEPLPDGFLGERGRVVKWVPQQEVLAHGAIGAFWTHSGWNSTLESVCEGVPMIFRDFGLDQPLNARYMSDVLKVGVYLENGWERGEVANAIRRVMVDEEGEYIRQNARVLKQKADVSLMKGGSSYESLESLVSYISSL
For the molecule B2, the initial rate is 2.3E+07 Reb M area/min.

B3: UGT76G1var38: UGT76G1 variant, mutations F41L_I295M_F377C (protein, UniProt Q6VAB4 1-458, looked up, variant F41L I295M F377C)
UDP-glycosyltransferase 76G1: MENKTETTVRRRRRIILFPVPFQGHINPILQLANVLYSKGLSITIFHTNFNKPKTSNYPHFTFRFILDNDPQDERISNLPTHGPLAGMRIPIINEHGADELRRELELLMLASEEDEEVSCLITDALWYFAQSVADSLNLRRLVLMTSSLFNFHAHVSLPQFDELGYLDPDDKTRLEEQASGFPMLKVKDIKSAYSNWQILKEILGKMIKQTKASSGVIWNSFKELEESELETVIREIPAPSFLIPLPKHLTASSSSLLDHDRTVFQWLDQQPPSSVLYVSFGSTSEVDEKDFLEMARGLVDSKQSFLWVVRPGFVKGSTWVEPLPDGFLGERGRIVKWVPQQEVLAHGAIGAFWTHSGWNSTLESVCEGVPMIFSDCGLDQPLNARYMSDVLKVGVYLENGWERGEIANAIRRVMVDEEGEYIRQNARVLKQKADVSLMKGGSSYESLESLVSYISSL
B3: the “conversion Reb D to Reb M after 24 h” value is 8.2% and the initial rate was 3.7E+06 Reb M area/min.

B4: UGT76G1var42: UGT76G1 variant, mutations T263S_Q266S_R334H (protein, UniProt Q6VAB4 1-458, looked up, variant T263S Q266S R334H)
UDP-glycosyltransferase 76G1: MENKTETTVRRRRRIILFPVPFQGHINPILQLANVLYSKGFSITIFHTNFNKPKTSNYPHFTFRFILDNDPQDERISNLPTHGPLAGMRIPIINEHGADELRRELELLMLASEEDEEVSCLITDALWYFAQSVADSLNLRRLVLMTSSLFNFHAHVSLPQFDELGYLDPDDKTRLEEQASGFPMLKVKDIKSAYSNWQILKEILGKMIKQTKASSGVIWNSFKELEESELETVIREIPAPSFLIPLPKHLTASSSSLLDHDRSVFSWLDQQPPSSVLYVSFGSTSEVDEKDFLEIARGLVDSKQSFLWVVRPGFVKGSTWVEPLPDGFLGERGHIVKWVPQQEVLAHGAIGAFWTHSGWNSTLESVCEGVPMIFSDFGLDQPLNARYMSDVLKVGVYLENGWERGEIANAIRRVMVDEEGEYIRQNARVLKQKADVSLMKGGSSYESLESLVSYISSL
B4 registered an initial rate of 2.2E+07 Reb M area/min.

B5: UGT76G1var43: UGT76G1 variant, mutations S241I_P272A_V279I (protein, UniProt Q6VAB4 1-458, looked up, variant S241I P272A V279I)
UDP-glycosyltransferase 76G1: MENKTETTVRRRRRIILFPVPFQGHINPILQLANVLYSKGFSITIFHTNFNKPKTSNYPHFTFRFILDNDPQDERISNLPTHGPLAGMRIPIINEHGADELRRELELLMLASEEDEEVSCLITDALWYFAQSVADSLNLRRLVLMTSSLFNFHAHVSLPQFDELGYLDPDDKTRLEEQASGFPMLKVKDIKSAYSNWQILKEILGKMIKQTKASSGVIWNSFKELEESELETVIREIPAPIFLIPLPKHLTASSSSLLDHDRTVFQWLDQQAPSSVLYISFGSTSEVDEKDFLEIARGLVDSKQSFLWVVRPGFVKGSTWVEPLPDGFLGERGRIVKWVPQQEVLAHGAIGAFWTHSGWNSTLESVCEGVPMIFSDFGLDQPLNARYMSDVLKVGVYLENGWERGEIANAIRRVMVDEEGEYIRQNARVLKQKADVSLMKGGSSYESLESLVSYISSL
Consider B5, for which the initial rate is given as 9.4E+06 Reb M area/min.

B6: UGT76G1var41: UGT76G1 variant, mutations L246F_A385T_K393G (protein, UniProt Q6VAB4 1-458, looked up, variant L246F A385T K393G)
UDP-glycosyltransferase 76G1: MENKTETTVRRRRRIILFPVPFQGHINPILQLANVLYSKGFSITIFHTNFNKPKTSNYPHFTFRFILDNDPQDERISNLPTHGPLAGMRIPIINEHGADELRRELELLMLASEEDEEVSCLITDALWYFAQSVADSLNLRRLVLMTSSLFNFHAHVSLPQFDELGYLDPDDKTRLEEQASGFPMLKVKDIKSAYSNWQILKEILGKMIKQTKASSGVIWNSFKELEESELETVIREIPAPSFLIPFPKHLTASSSSLLDHDRTVFQWLDQQPPSSVLYVSFGSTSEVDEKDFLEIARGLVDSKQSFLWVVRPGFVKGSTWVEPLPDGFLGERGRIVKWVPQQEVLAHGAIGAFWTHSGWNSTLESVCEGVPMIFSDFGLDQPLNTRYMSDVLGVGVYLENGWERGEIANAIRRVMVDEEGEYIRQNARVLKQKADVSLMKGGSSYESLESLVSYISSL
B6: the “conversion Reb D to Reb M after 24 h” value stood at 0.8% and the initial rate is 1.4E+06 Reb M area/min.

B7: UGT76G1var36: UGT76G1 variant, mutations F265L_L379A_V396F (protein, UniProt Q6VAB4 1-458, looked up, variant F265L L379A V396F)
UDP-glycosyltransferase 76G1: MENKTETTVRRRRRIILFPVPFQGHINPILQLANVLYSKGFSITIFHTNFNKPKTSNYPHFTFRFILDNDPQDERISNLPTHGPLAGMRIPIINEHGADELRRELELLMLASEEDEEVSCLITDALWYFAQSVADSLNLRRLVLMTSSLFNFHAHVSLPQFDELGYLDPDDKTRLEEQASGFPMLKVKDIKSAYSNWQILKEILGKMIKQTKASSGVIWNSFKELEESELETVIREIPAPSFLIPLPKHLTASSSSLLDHDRTVLQWLDQQPPSSVLYVSFGSTSEVDEKDFLEIARGLVDSKQSFLWVVRPGFVKGSTWVEPLPDGFLGERGRIVKWVPQQEVLAHGAIGAFWTHSGWNSTLESVCEGVPMIFSDFGADQPLNARYMSDVLKVGFYLENGWERGEIANAIRRVMVDEEGEYIRQNARVLKQKADVSLMKGGSSYESLESLVSYISSL
For B7, the “conversion Reb D to Reb M after 24 h” value is reported as 20.0% and the initial rate amounted to 8.8E+06 Reb M area/min.

B8: UGT76G1var40: UGT76G1 variant, mutations T263S_Q266E_S375R (protein, UniProt Q6VAB4 1-458, looked up, variant T263S Q266E S375R)
UDP-glycosyltransferase 76G1: MENKTETTVRRRRRIILFPVPFQGHINPILQLANVLYSKGFSITIFHTNFNKPKTSNYPHFTFRFILDNDPQDERISNLPTHGPLAGMRIPIINEHGADELRRELELLMLASEEDEEVSCLITDALWYFAQSVADSLNLRRLVLMTSSLFNFHAHVSLPQFDELGYLDPDDKTRLEEQASGFPMLKVKDIKSAYSNWQILKEILGKMIKQTKASSGVIWNSFKELEESELETVIREIPAPSFLIPLPKHLTASSSSLLDHDRSVFEWLDQQPPSSVLYVSFGSTSEVDEKDFLEIARGLVDSKQSFLWVVRPGFVKGSTWVEPLPDGFLGERGRIVKWVPQQEVLAHGAIGAFWTHSGWNSTLESVCEGVPMIFRDFGLDQPLNARYMSDVLKVGVYLENGWERGEIANAIRRVMVDEEGEYIRQNARVLKQKADVSLMKGGSSYESLESLVSYISSL
In turn, B8 displayed an initial rate of 3.3E+07 Reb M area/min.

B9: UGT76G1var37: UGT76G1 variant, mutations E229A_L379G_I407V (protein, UniProt Q6VAB4 1-458, looked up, variant E229A L379G I407V)
UDP-glycosyltransferase 76G1: MENKTETTVRRRRRIILFPVPFQGHINPILQLANVLYSKGFSITIFHTNFNKPKTSNYPHFTFRFILDNDPQDERISNLPTHGPLAGMRIPIINEHGADELRRELELLMLASEEDEEVSCLITDALWYFAQSVADSLNLRRLVLMTSSLFNFHAHVSLPQFDELGYLDPDDKTRLEEQASGFPMLKVKDIKSAYSNWQILKEILGKMIKQTKASSGVIWNSFKELEESALETVIREIPAPSFLIPLPKHLTASSSSLLDHDRTVFQWLDQQPPSSVLYVSFGSTSEVDEKDFLEIARGLVDSKQSFLWVVRPGFVKGSTWVEPLPDGFLGERGRIVKWVPQQEVLAHGAIGAFWTHSGWNSTLESVCEGVPMIFSDFGGDQPLNARYMSDVLKVGVYLENGWERGEVANAIRRVMVDEEGEYIRQNARVLKQKADVSLMKGGSSYESLESLVSYISSL
In the case of B9, the initial rate was 2.8E+07 Reb M area/min.

B10: UGT76G1var39: UGT76G1 variant, mutations F22Y_F41L_V366I (protein, UniProt Q6VAB4 1-458, looked up, variant F22Y F41L V366I)
UDP-glycosyltransferase 76G1: MENKTETTVRRRRRIILFPVPYQGHINPILQLANVLYSKGLSITIFHTNFNKPKTSNYPHFTFRFILDNDPQDERISNLPTHGPLAGMRIPIINEHGADELRRELELLMLASEEDEEVSCLITDALWYFAQSVADSLNLRRLVLMTSSLFNFHAHVSLPQFDELGYLDPDDKTRLEEQASGFPMLKVKDIKSAYSNWQILKEILGKMIKQTKASSGVIWNSFKELEESELETVIREIPAPSFLIPLPKHLTASSSSLLDHDRTVFQWLDQQPPSSVLYVSFGSTSEVDEKDFLEIARGLVDSKQSFLWVVRPGFVKGSTWVEPLPDGFLGERGRIVKWVPQQEVLAHGAIGAFWTHSGWNSTLESICEGVPMIFSDFGLDQPLNARYMSDVLKVGVYLENGWERGEIANAIRRVMVDEEGEYIRQNARVLKQKADVSLMKGGSSYESLESLVSYISSL
On to B10, for which the “conversion Reb D to Reb M after 24 h” value was 7.2% and the initial rate is listed as 3.3E+06 Reb M area/min.

Source of the values: patent US11653679B2, “High-purity steviol glycosides” (PureCircle Sdn Bhd, priority 2014, dated 2023).
